The record followed here is patent US20250352661A1 (MYTHIC THERAPEUTICS, published 2025).

First the molecules themselves.
T1: Human LRRC15 Protein, His Tag (Acro Biosystems) (human, UniProt Q8TF66 22-538, limits assumed)
T1 construct: Bought protein with His tag
T1 sequence (looked up): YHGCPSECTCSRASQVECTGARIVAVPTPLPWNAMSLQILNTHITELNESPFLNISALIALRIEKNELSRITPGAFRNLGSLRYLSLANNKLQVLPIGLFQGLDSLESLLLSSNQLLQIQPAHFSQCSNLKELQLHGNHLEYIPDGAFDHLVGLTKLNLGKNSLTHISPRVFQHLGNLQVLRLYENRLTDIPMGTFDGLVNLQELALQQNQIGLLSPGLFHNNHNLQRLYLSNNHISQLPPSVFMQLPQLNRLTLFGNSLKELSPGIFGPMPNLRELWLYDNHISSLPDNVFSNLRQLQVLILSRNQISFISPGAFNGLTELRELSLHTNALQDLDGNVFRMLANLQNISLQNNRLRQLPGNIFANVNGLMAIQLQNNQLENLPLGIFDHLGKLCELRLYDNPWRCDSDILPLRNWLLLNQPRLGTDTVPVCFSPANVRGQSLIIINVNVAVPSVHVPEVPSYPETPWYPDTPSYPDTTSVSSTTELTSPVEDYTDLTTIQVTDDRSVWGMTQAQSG

B1: MYT5742 (antibody, V domains shown)
VH: QQQLVESGGGLVKPGASLTLTCKASGFSFSGSYWICWVRQAPGKGLEWIGCINGGSLDITYYASWAKGRFTISKASSTTVTLQKTSLTAADTATYFCASDTSYTAYGNFYFNLWGPGTLVTVSS
VL: AQVLTQTASPVSAAVGGTVTINCQSSQSVLNNNWLAWYQQKPGQPPKLLIYDASSLASGVPSRFKGSGSGTQFTLTISDLESDDAATYYCQGEFSCGSADCNAFGGGTEVVVKG
notes: Parent of the rabbit 24D9 scan; chimeric, rabbit variable domains with human constant regions; also called 24D9; chimeric 24D9 RabMAb
B2: MYT7887 (antibody, V domains shown)
VH: QQQLVESGGGLVKPGASLTLTCKASGFSFSGHYWICWVRQAPGKGLEWIGCINGGSLDITYYASWAKGRFTISKASSTTVTLQKTSLTAADTATYFCASDTSYTAYGNFYFNLWGPGTLVTVSS
VL: AQVLTQTASPVSAAVGGTVTINCQSSQSVLNNNWLAWYQQKPGQPPKLLIYDASSLASGVPSRFKGSGSGTQFTLTISDLESDDAATYYCQGEFSCGSADCNAFGGGTEVVVKG
notes: rabbit 24D9 VH S32H; chimeric, human constant regions
B3: MYT7885 (antibody, V domains shown)
VH: QQQLVESGGGLVKPGASLTLTCKASGFSFHGSYWICWVRQAPGKGLEWIGCINGGSLDITYYASWAKGRFTISKASSTTVTLQKTSLTAADTATYFCASDTSYTAYGNFYFNLWGPGTLVTVSS
VL: AQVLTQTASPVSAAVGGTVTINCQSSQSVLNNNWLAWYQQKPGQPPKLLIYDASSLASGVPSRFKGSGSGTQFTLTISDLESDDAATYYCQGEFSCGSADCNAFGGGTEVVVKG
notes: rabbit 24D9 VH S30H; chimeric, human constant regions
B4: MYT7881 (antibody, V domains shown)
VH: QQQLVESGGGLVKPGASLTLTCKASHFSFSGSYWICWVRQAPGKGLEWIGCINGGSLDITYYASWAKGRFTISKASSTTVTLQKTSLTAADTATYFCASDTSYTAYGNFYFNLWGPGTLVTVSS
VL: AQVLTQTASPVSAAVGGTVTINCQSSQSVLNNNWLAWYQQKPGQPPKLLIYDASSLASGVPSRFKGSGSGTQFTLTISDLESDDAATYYCQGEFSCGSADCNAFGGGTEVVVKG
notes: rabbit 24D9 VH G26H; chimeric, human constant regions
B5: MYT7883 (antibody, V domains shown)
VH: QQQLVESGGGLVKPGASLTLTCKASGFHFSGSYWICWVRQAPGKGLEWIGCINGGSLDITYYASWAKGRFTISKASSTTVTLQKTSLTAADTATYFCASDTSYTAYGNFYFNLWGPGTLVTVSS
VL: AQVLTQTASPVSAAVGGTVTINCQSSQSVLNNNWLAWYQQKPGQPPKLLIYDASSLASGVPSRFKGSGSGTQFTLTISDLESDDAATYYCQGEFSCGSADCNAFGGGTEVVVKG
notes: rabbit 24D9 VH S28H; chimeric, human constant regions
B6: MYT7882 (antibody, V domains shown)
VH: QQQLVESGGGLVKPGASLTLTCKASGHSFSGSYWICWVRQAPGKGLEWIGCINGGSLDITYYASWAKGRFTISKASSTTVTLQKTSLTAADTATYFCASDTSYTAYGNFYFNLWGPGTLVTVSS
VL: AQVLTQTASPVSAAVGGTVTINCQSSQSVLNNNWLAWYQQKPGQPPKLLIYDASSLASGVPSRFKGSGSGTQFTLTISDLESDDAATYYCQGEFSCGSADCNAFGGGTEVVVKG
notes: rabbit 24D9 VH F27H; chimeric, human constant regions
B7: MYT7884 (antibody, V domains shown)
VH: QQQLVESGGGLVKPGASLTLTCKASGFSHSGSYWICWVRQAPGKGLEWIGCINGGSLDITYYASWAKGRFTISKASSTTVTLQKTSLTAADTATYFCASDTSYTAYGNFYFNLWGPGTLVTVSS
VL: AQVLTQTASPVSAAVGGTVTINCQSSQSVLNNNWLAWYQQKPGQPPKLLIYDASSLASGVPSRFKGSGSGTQFTLTISDLESDDAATYYCQGEFSCGSADCNAFGGGTEVVVKG
notes: rabbit 24D9 VH F29H; chimeric, human constant regions
B8: MYT7886 (antibody, V domains shown)
VH: QQQLVESGGGLVKPGASLTLTCKASGFSFSHSYWICWVRQAPGKGLEWIGCINGGSLDITYYASWAKGRFTISKASSTTVTLQKTSLTAADTATYFCASDTSYTAYGNFYFNLWGPGTLVTVSS
VL: AQVLTQTASPVSAAVGGTVTINCQSSQSVLNNNWLAWYQQKPGQPPKLLIYDASSLASGVPSRFKGSGSGTQFTLTISDLESDDAATYYCQGEFSCGSADCNAFGGGTEVVVKG
notes: rabbit 24D9 VH G31H; chimeric, human constant regions

The experiment concerns the target T1, Human LRRC15 Protein, His Tag (Acro …). Kind of experiment: BLI; dissociation pH 7.4 black, pH 5.4 grey [1/2); D00013 FIG. 2B (1/2]. Background: In BLI a coated tip is dipped into the sample, and binding shifts an interference pattern.
B1: the binding result is recorded as “binds”.

In the case of B2, the binding result was “binds”.

Turning to B3, the binding result was “binds”.

As to B4, the binding result is “binds”.

As to B5, the binding result is “binds”.

B6: the binding result is given as “binds”.

On to B7, for which the binding result was “no binding (tested: 50 nM LRRC15)”.

Consider B8, for which the binding result is recorded as “binds”.
